In article PMC7352912:

Biological target: F-actin of ghost muscle fibres (rabbit (endogenous in m. psoas fibres)) (UniProt P68135)
Assay: fluorescence intensity of labelled proteins bound in ghost muscle fibres; actin-Tpm-S1 complexes in ghost fibres; rigor (no nucleotide) or MgADP; with MgATP the ratio of S1 to actin was reduced
Conditions: for stoichiometry N: scale: actin per tropomyosin

recombinant wild-type γ-tropomyosin (Tpm3.12) (natural protein), sequence (Q5KR47 whole entry): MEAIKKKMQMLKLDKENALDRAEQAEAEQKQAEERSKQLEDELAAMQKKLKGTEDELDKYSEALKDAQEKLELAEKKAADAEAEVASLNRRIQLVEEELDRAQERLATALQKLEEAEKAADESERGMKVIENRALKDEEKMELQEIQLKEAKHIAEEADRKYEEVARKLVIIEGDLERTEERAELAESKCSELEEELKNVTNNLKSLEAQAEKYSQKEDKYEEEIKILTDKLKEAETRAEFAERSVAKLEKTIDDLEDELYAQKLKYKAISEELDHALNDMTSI
myosin subfragment-1, sequence (P02602 whole entry, looked up, the tested form may be a part): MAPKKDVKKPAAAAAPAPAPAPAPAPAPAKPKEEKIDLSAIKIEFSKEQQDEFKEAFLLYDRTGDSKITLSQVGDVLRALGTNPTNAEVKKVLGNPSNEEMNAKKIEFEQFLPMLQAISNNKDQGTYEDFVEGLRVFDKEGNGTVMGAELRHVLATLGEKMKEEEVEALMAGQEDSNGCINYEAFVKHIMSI

Substance: myosin subfragment-1 (from UniProt P02602 1-192) (complex)
- stoichiometry N (actin per S1 (molar ratio 1:2.4)): 2.4

Substance: E173A mutant γ-tropomyosin (Tpm3.12) (natural protein)
- stoichiometry N: 7

Substance: recombinant wild-type γ-tropomyosin (Tpm3.12) (natural protein)
- stoichiometry N: 7
